Test results reported in the supplement of paper PMC9112550, “Optimization of the antimicrobial peptide Bac7 by deep mutational scanning” (BMC Biology, 2022).

Test system: Escherichia coli TOP10
Assay: shrunken log2 fold change of peptide-encoding DNA abundance (4.5 h post-induction vs induction); higher = less antimicrobial activity (less host growth inhibition)
Settings: time post-induction: 4.5 h; library: site-saturation at positions 5, 18, 19, 20
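Note: peptides expressed intracellularly from a pBAD plasmid library in pooled LB shake-flask culture, induced with 0.3% L-arabinose, DNA abundance read by NGS, three biological replicates, DESeq2 with apeglm shrinkage.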

Sequence	shrunken log2 fold change
RRIRCRPPRLPRPRPRPHGWPRP	0.267
RRIRDRPPRLPRPRPRPHPFPRP	0.0528
RRIRPRPPRLPRPRPRPCPKPRP	-0.0283
RRIRTRPPRLPRPRPRPSSHPRP	-0.669
RRIRTRPPRLPRPRPRPAIPPRP	-0.212
RRIRCRPPRLPRPRPRPCKDPRP	-0.142
RRIRPRPPRLPRPRPRPCCAPRP	0.0786
RRIRGRPPRLPRPRPRPFAFPRP	0.531
RRIRIRPPRLPRPRPRPQWWPRP	0.0271
RRIRDRPPRLPRPRPRPDRNPRP	-0.0216
RRIRNRPPRLPRPRPRPTNMPRP	-0.753
RRIRFRPPRLPRPRPRPIAFPRP	0.0375
RRIRPRPPRLPRPRPRPRMLPRP	0.00647
RRIRARPPRLPRPRPRPWWQPRP	0.00618
RRIRVRPPRLPRPRPRPVMYPRP	-0.251
RRIRARPPRLPRPRPRPGTPPRP	0.642
RRIRIRPPRLPRPRPRPMHIPRP	-0.417
RRIRARPPRLPRPRPRPPNIPRP	0.0251
RRIRIRPPRLPRPRPRPIYFPRP	-0.233
RRIRRRPPRLPRPRPRPDDMPRP	-0.039
RRIRKRPPRLPRPRPRPLFQPRP	0.181
RRIRKRPPRLPRPRPRPYFWPRP	-0.0468
RRIRQRPPRLPRPRPRPDFNPRP	-0.164
RRIRHRPPRLPRPRPRPELMPRP	-0.141
RRIRIRPPRLPRPRPRPAGYPRP	-0.038

Sequence	shrunken log2 fold change
RRIRCRPPRLPRPRPRPMGAPRP	0.144
RRIRKRPPRLPRPRPRPRCNPRP	0.196
RRIRCRPPRLPRPRPRPQFTPRP	-0.427
RRIRSRPPRLPRPRPRPNWNPRP	-0.453
RRIRARPPRLPRPRPRPNWDPRP	0.0564
RRIRRRPPRLPRPRPRPWTFPRP	-0.103
RRIRERPPRLPRPRPRPIASPRP	0.129
RRIRMRPPRLPRPRPRPQFHPRP	-0.237
RRIRHRPPRLPRPRPRPYQLPRP	-0.0135
RRIRHRPPRLPRPRPRPGNEPRP	-0.364
RRIRARPPRLPRPRPRPVIIPRP	-0.104
RRIRFRPPRLPRPRPRPRPTPRP	0.732
RRIRSRPPRLPRPRPRPICWPRP	0.0446
RRIRQRPPRLPRPRPRPAEMPRP	-0.0227
RRIRDRPPRLPRPRPRPMHPPRP	-0.0589
RRIRVRPPRLPRPRPRPDYFPRP	-0.163
RRIRSRPPRLPRPRPRPSEPPRP	-0.167
RRIRARPPRLPRPRPRPLPLPRP	0.186
RRIRMRPPRLPRPRPRPGQRPRP	1.08
RRIRQRPPRLPRPRPRPRFTPRP	0.184
RRIRYRPPRLPRPRPRPTMKPRP	-0.285
RRIRKRPPRLPRPRPRPLENPRP	0.228
RRIRHRPPRLPRPRPRPCFAPRP	0.0434
RRIRARPPRLPRPRPRPGCGPRP	0.887
RRIRLRPPRLPRPRPRPNYWPRP	-0.0686

Sequence	shrunken log2 fold change
RRIRLRPPRLPRPRPRPCPDPRP	-0.136
RRIRSRPPRLPRPRPRPDWCPRP	0.224
RRIRHRPPRLPRPRPRPPYDPRP	-0.0114
RRIRSRPPRLPRPRPRPDENPRP	0.11
RRIRHRPPRLPRPRPRPRWIPRP	-0.108
RRIRRRPPRLPRPRPRPRHQPRP	0.277
RRIRMRPPRLPRPRPRPRFFPRP	0.286
RRIRNRPPRLPRPRPRPMRAPRP	0.517
RRIRPRPPRLPRPRPRPCDSPRP	0.301
RRIRARPPRLPRPRPRPECVPRP	1.07
RRIRDRPPRLPRPRPRPIFNPRP	-0.239
RRIRWRPPRLPRPRPRPLMSPRP	-0.0663
RRIRTRPPRLPRPRPRPDYCPRP	-0.125
RRIRMRPPRLPRPRPRPCICPRP	-0.0505
RRIRYRPPRLPRPRPRPTFHPRP	-0.649
RRIRERPPRLPRPRPRPMNAPRP	-0.259
RRIRNRPPRLPRPRPRPPYEPRP	-0.18
RRIRSRPPRLPRPRPRPTHLPRP	0.135
RRIRERPPRLPRPRPRPPSNPRP	-0.208
RRIRFRPPRLPRPRPRPKDNPRP	-0.000409
RRIRTRPPRLPRPRPRPRLSPRP	-0.0634
RRIRKRPPRLPRPRPRPLWDPRP	0.609
RRIRQRPPRLPRPRPRPPYPPRP	-0.0407
RRIRQRPPRLPRPRPRPFDAPRP	-0.0632
RRIRWRPPRLPRPRPRPWHKPRP	-0.0356

Sequence	shrunken log2 fold change
RRIRQRPPRLPRPRPRPLQSPRP	-0.0698
RRIRARPPRLPRPRPRPRCWPRP	0.601
RRIRNRPPRLPRPRPRPLWPPRP	0.14
RRIRHRPPRLPRPRPRPTFLPRP	-0.0769
RRIRGRPPRLPRPRPRPSKCPRP	-0.313
RRIRPRPPRLPRPRPRPNNEPRP	-0.504
RRIRKRPPRLPRPRPRPKAMPRP	-0.0457
RRIRCRPPRLPRPRPRPPWKPRP	0.195
RRIRPRPPRLPRPRPRPKMSPRP	-0.0151
RRIRTRPPRLPRPRPRPVRQPRP	0.264
RRIRRRPPRLPRPRPRPLGCPRP	0.166
RRIRDRPPRLPRPRPRPDYTPRP	-0.276
RRIRCRPPRLPRPRPRPKNQPRP	-0.112
RRIRVRPPRLPRPRPRPQVRPRP	0.0179
RRIRTRPPRLPRPRPRPDGCPRP	0.127
RRIRPRPPRLPRPRPRPNMYPRP	-0.746
RRIRSRPPRLPRPRPRPWIEPRP	-0.0567
RRIRVRPPRLPRPRPRPYDLPRP	-0.121
RRIRFRPPRLPRPRPRPLPLPRP	0.0222
RRIRNRPPRLPRPRPRPYKTPRP	-0.0391
RRIRIRPPRLPRPRPRPSCRPRP	-0.644
RRIRYRPPRLPRPRPRPPAMPRP	-0.35
RRIRVRPPRLPRPRPRPAYHPRP	-0.316
RRIRCRPPRLPRPRPRPNTIPRP	-0.553
RRIRDRPPRLPRPRPRPALRPRP	0.0869

Sequence	shrunken log2 fold change
RRIRPRPPRLPRPRPRPAGVPRP	0.392
RRIRDRPPRLPRPRPRPFTPPRP	-0.38
RRIRARPPRLPRPRPRPRAEPRP	0.983
RRIRSRPPRLPRPRPRPLSLPRP	0.0119
RRIRNRPPRLPRPRPRPGVIPRP	0.208
RRIRVRPPRLPRPRPRPPDQPRP	0.124
RRIRCRPPRLPRPRPRPQRGPRP	0.337
RRIRGRPPRLPRPRPRPEHCPRP	0.549
RRIRYRPPRLPRPRPRPKVCPRP	0.0165
RRIRCRPPRLPRPRPRPWGYPRP	-0.372
RRIRFRPPRLPRPRPRPPRLPRP	0.399
RRIRQRPPRLPRPRPRPDEHPRP	2.14
RRIRARPPRLPRPRPRPRFKPRP	0.122
RRIRSRPPRLPRPRPRPFTIPRP	-0.0987
RRIRVRPPRLPRPRPRPRFSPRP	-0.17
RRIRCRPPRLPRPRPRPEGCPRP	3.02
RRIRGRPPRLPRPRPRPFHHPRP	-0.126
RRIRRRPPRLPRPRPRPPFTPRP	0.0961
RRIRMRPPRLPRPRPRPYDRPRP	0.043
RRIRCRPPRLPRPRPRPRVRPRP	0.197
RRIRCRPPRLPRPRPRPGHPPRP	0.00689
RRIRPRPPRLPRPRPRPKVHPRP	-0.132
RRIRWRPPRLPRPRPRPACSPRP	0.528
RRIRMRPPRLPRPRPRPYHLPRP	0.00229
RRIRFRPPRLPRPRPRPRLKPRP	0.0563

Sequence	shrunken log2 fold change
RRIRGRPPRLPRPRPRPDGDPRP	0.265
RRIRARPPRLPRPRPRPADLPRP	0.729
RRIRSRPPRLPRPRPRPICHPRP	-0.179
RRIRLRPPRLPRPRPRPDARPRP	0.0258
RRIRQRPPRLPRPRPRPCMDPRP	0.00489
RRIRQRPPRLPRPRPRPHFNPRP	-0.324
RRIRIRPPRLPRPRPRPYIAPRP	-0.158
RRIRDRPPRLPRPRPRPRQSPRP	-0.00504
RRIRSRPPRLPRPRPRPEWGPRP	0.0115
RRIRWRPPRLPRPRPRPNMYPRP	-0.436
RRIRQRPPRLPRPRPRPASQPRP	0.0572
RRIRARPPRLPRPRPRPMPRPRP	0.827
RRIRRRPPRLPRPRPRPRFAPRP	0.616
RRIRGRPPRLPRPRPRPNKEPRP	-0.00663
RRIRHRPPRLPRPRPRPQYDPRP	-1.12
RRIRVRPPRLPRPRPRPNMCPRP	-0.576
RRIRHRPPRLPRPRPRPMMDPRP	-0.214
RRIRGRPPRLPRPRPRPDSIPRP	0.495
RRIRMRPPRLPRPRPRPCYYPRP	-0.199
RRIRARPPRLPRPRPRPCHDPRP	-0.00479
RRIRTRPPRLPRPRPRPCYNPRP	-0.645
RRIRSRPPRLPRPRPRPRFDPRP	0.248
RRIRRRPPRLPRPRPRPWVDPRP	0.0233
RRIRERPPRLPRPRPRPNCLPRP	-0.297
RRIRVRPPRLPRPRPRPQQFPRP	0.0811
